In patent US20160017053A1 (IMMUNOGEN, published 2016):

How the values were obtained:
[1] = biological target: human EGFR (epidermal growth factor receptor) (human) (UniProt P00533); experiment: flow cytometry, binding curve of the biotinylated ligand on MDA-MB468 cells
[2] = biological target: T1, human EGFR (epidermal growth factor receptor) (human, UniProt P00533 25-1210); experiment: cell-based or functional assay
[3] = biological target: T1, human EGFR (epidermal growth factor …); experiment: flow cytometry on MDA-MB468 cells, apparent Kd from non-linear regression of geo mean fluorescence against [Ab] (M)
[4] = biological target: T1, human EGFR (epidermal growth factor …); experiment: flow cytometry on MDA-MB468 cells
[5] = biological target: T1, human EGFR (epidermal growth factor …); experiment: flow cytometry on MDA-MB468 or A431 cells; EC50 of the curve taken as apparent Kd

## biotinylated EGF (Invitrogen) (ligand)
[1]
  EC50: 1.8 nM

B1: chimeric ML66-SMCC-DM1 (antibody, V domains shown)
VH: QVQLKESGPGLVQPSQTLSLTCTVSGLSLASNSVSWIRQPPGKGLEWMGVIWNHGGTDYNSVIKSRLSISRDTSKSQVFLKMNSLQTEDTAMYFCVRKGGIYFDYWGQGVMVTVSS
VL: DTVLTQSPALAVSPGERVTISCRASESVSTLMHWYQQKSGQQPKLLIYLASHRESGVPARFSGSGSGTDFTLTIDPMEADDTATYYCQQSRNDPWTFGGGTNLELK
modifications: Maytansinoid DM1 is linked to the antibody through the non-cleavable SMCC linker. The attachment sites and drug load for chML66 are not stated, and the letters cannot carry them.
[2]
  EC50 of cytotoxicity on KB cells with 1 µM naked chML66 antibody blocking: 30 nM
  EC50 of cytotoxicity on KB cells without blocking antibody: 3 nM

B2: humanized ML66 (huML66) antibody (antibody, human IgG1, kappa, V domains shown)
VH: QVQLQESGPGLVKPSETLSLTCTVSGLSLASNSVSWIRQPPGKGLEWMGVIWNHGGTDYNPSIKSRLSISRDTSKSQVFLKMNSLTAADTAMYFCVRKGGIYFDYWGQGVLVTVSS
VL: DTVLTQSPSLAVSPGERATISCRASESVSTLMHWYQQKPGQQPKLLIYLASHRESGVPARFSGSGSGTDFTLTIDPMEAEDTATYYCQQSRNDPWTFGQGTKLELKR
[3]
  Kd: 1.23 nM
[4]
  EC50 (read off the curve): ~1 nM
[5]
  Kd: 1.12 nM

B3: huML66-SPDB-DM4 conjugate (antibody, human IgG1, kappa, V domains shown)
VH: QVQLQESGPGLVKPSETLSLTCTVSGLSLASNSVSWIRQPPGKGLEWMGVIWNHGGTDYNPSIKSRLSISRDTSKSQVFLKMNSLTAADTAMYFCVRKGGIYFDYWGQGVLVTVSS
VL: DTVLTQSPSLAVSPGERATISCRASESVSTLMHWYQQKPGQQPKLLIYLASHRESGVPARFSGSGSGTDFTLTIDPMEAEDTATYYCQQSRNDPWTFGQGTKLELKR
modifications: DM4 linked through SPDB; sites not stated; DM4 linked through SPDB; 3.5-4 DM4 molecules per antibody; sites not stated
[5]
  Kd: 2.93 nM

B4: rat ML66 antibody (antibody, V domains shown)
VH: QVQLKESGPGLVQPSQTLSLTCTVSGLSLASNSVSWIRQPPGKGLEWMGVIWNHGGTDYNSVIKSRLSISRDTSKSQVFLKMNSLQTEDTAMYFCVRKGGIYFDYWGQGVMVTVSS
VL: DTVLTQSPALAVSPGERVTISCRASESVSTLMHWYQQKSGQQPKLLIYLASHRESGVPARFSGSGSGTDFTLTIDPMEADDTATYYCQQSRNDPWTFGGGTNLELKR
notes: Rat monoclonal antibody purified from hybridoma
[3]
  Kd: 1.94 nM
[4]
  EC50 (read off the curve): ~2 nM

B5: huML66-SMCC-DM1 conjugate (antibody, human IgG1, kappa, V domains shown)
VH: QVQLQESGPGLVKPSETLSLTCTVSGLSLASNSVSWIRQPPGKGLEWMGVIWNHGGTDYNPSIKSRLSISRDTSKSQVFLKMNSLTAADTAMYFCVRKGGIYFDYWGQGVLVTVSS
VL: DTVLTQSPSLAVSPGERATISCRASESVSTLMHWYQQKPGQQPKLLIYLASHRESGVPARFSGSGSGTDFTLTIDPMEAEDTATYYCQQSRNDPWTFGQGTKLELKR
modifications: DM1 linked through SMCC; sites not stated; DM1 linked through SMCC; 3.5-4 DM1 molecules per antibody; sites not stated
[5]
  Kd: 2.33 nM

B6: muEGFR-8-SMCC-DM1 conjugate (antibody, V domains shown)
VH: EVQLQQSGAELVKPGASVKLSCTTSGFNIKDTYIHWVKKRPEQGLEWIGRIDPTNGNNKYDPKFQGKATITADTSSNTAYLQLSSLTSEDTAVYYCTREDGYRYDDWYFDVWGAGTTVTVSS
VL: QIVLTQSPASMSASPGEKVTMTCSASSSVSYMHWYQQKSGTSPKRWIYATSKLASGVPARFSGSGSGTSYSLTISSMEAEDAATYYCQQWSSNPLTFGAGTKLELKR
modifications: DM1 linked through SMCC to the antibody; drug load and sites not stated
notes: Maytansinoid conjugate of the whole murine EGFR-8 antibody; its preparation is not described separately
[5]
  Kd: 4.54 nM
[2]
  EC50 of in vitro cytotoxicity on NCI-H226 cells (WST-8): 0.68 nM
  EC50 of in vitro cytotoxicity on NCI-H292 cells (WST-8): 0.43 nM
  EC50 of in vitro cytotoxicity on NCI-H322M cells (WST-8): 3.07 nM

B7: murine EGFR-8 antibody (antibody, V domains shown)
VH: EVQLQQSGAELVKPGASVKLSCTTSGFNIKDTYIHWVKKRPEQGLEWIGRIDPTNGNNKYDPKFQGKATITADTSSNTAYLQLSSLTSEDTAVYYCTREDGYRYDDWYFDVWGAGTTVTVSS
VL: QIVLTQSPASMSASPGEKVTMTCSASSSVSYMHWYQQKSGTSPKRWIYATSKLASGVPARFSGSGSGTSYSLTISSMEAEDAATYYCQQWSSNPLTFGAGTKLELKR
notes: Mouse monoclonal antibody purified from hybridoma; also called muEGFR-8
[5]
  Kd: 1.43 nM
